Laboratory results: patent US20160145321A1 (CRUCELL HOLLAND B V, published 2016)

T1: G protein of RSV A/Long (virus, ATCC Cat. No. VR-26) (Respiratory syncytial virus A/Long, UniProt P20895 1-298)
T1 sequence (looked up): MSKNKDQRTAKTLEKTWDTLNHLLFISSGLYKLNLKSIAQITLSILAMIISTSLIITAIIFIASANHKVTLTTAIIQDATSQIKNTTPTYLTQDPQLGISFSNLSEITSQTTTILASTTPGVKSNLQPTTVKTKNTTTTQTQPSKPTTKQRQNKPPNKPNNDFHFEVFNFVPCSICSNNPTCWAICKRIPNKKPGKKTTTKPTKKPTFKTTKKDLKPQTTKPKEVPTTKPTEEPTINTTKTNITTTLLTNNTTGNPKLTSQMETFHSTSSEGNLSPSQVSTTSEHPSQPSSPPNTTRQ

T2: G protein of RSV A/A2 (virus, ATCC Cat. No. VR-1540) (Respiratory syncytial virus A/A2, UniProt P03423 1-298)
T2 sequence: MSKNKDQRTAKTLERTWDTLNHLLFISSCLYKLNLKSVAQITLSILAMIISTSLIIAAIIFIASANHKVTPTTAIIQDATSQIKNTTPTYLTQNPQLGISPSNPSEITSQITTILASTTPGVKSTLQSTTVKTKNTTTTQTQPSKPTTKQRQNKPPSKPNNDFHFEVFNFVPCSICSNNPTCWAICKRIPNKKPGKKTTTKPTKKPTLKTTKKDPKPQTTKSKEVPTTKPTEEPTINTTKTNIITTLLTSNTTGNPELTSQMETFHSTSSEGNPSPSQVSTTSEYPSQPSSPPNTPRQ

T3: G protein of RSV B/18537 (virus, ATCC Cat. No. VR-1580) (Respiratory syncytial virus B/18537, UniProt P20896 1-292)
T3 sequence: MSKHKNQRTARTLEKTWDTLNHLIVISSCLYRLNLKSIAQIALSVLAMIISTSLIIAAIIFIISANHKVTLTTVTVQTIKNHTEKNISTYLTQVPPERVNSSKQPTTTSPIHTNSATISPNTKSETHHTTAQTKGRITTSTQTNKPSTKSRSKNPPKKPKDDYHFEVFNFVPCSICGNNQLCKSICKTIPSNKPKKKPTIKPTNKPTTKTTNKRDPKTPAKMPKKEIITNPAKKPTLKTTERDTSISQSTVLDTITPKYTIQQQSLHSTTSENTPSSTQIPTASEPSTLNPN

T4: Recombinant RSV attachment protein (G protein) corresponding to RSV A/Long (Respiratory syncytial virus A/Long, UniProt P20895 65-298)
T4 construct: also called RSV Ga; Ga
T4 sequence: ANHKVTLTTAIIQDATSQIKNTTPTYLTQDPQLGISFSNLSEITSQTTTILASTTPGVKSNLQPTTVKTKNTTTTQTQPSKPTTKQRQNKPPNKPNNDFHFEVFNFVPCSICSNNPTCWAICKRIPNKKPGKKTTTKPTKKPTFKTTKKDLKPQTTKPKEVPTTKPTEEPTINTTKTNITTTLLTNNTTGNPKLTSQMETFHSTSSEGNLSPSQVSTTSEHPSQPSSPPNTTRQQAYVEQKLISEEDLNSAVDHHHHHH

T5: Recombinant RSV attachment protein (G protein) corresponding to RSV B/B1 (Respiratory syncytial virus B/B1, UniProt O36633 65-299)
T5 sequence: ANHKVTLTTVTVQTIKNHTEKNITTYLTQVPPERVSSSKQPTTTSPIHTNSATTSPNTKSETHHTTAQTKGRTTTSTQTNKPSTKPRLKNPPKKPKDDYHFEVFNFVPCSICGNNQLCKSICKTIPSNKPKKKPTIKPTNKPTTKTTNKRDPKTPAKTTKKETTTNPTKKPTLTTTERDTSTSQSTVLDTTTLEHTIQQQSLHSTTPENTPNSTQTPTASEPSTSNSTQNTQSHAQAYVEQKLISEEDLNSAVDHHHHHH

B1: CB003.1 (antibody, V domains shown)
VH: QVQLVQSGPELRKPGASVTVSCKASGYTFTTYYIHWVRQAPGGGLDWMGMINTGSGVTSYAQKFQGRVAMTRDTSTSTVFMELSSLRFEDTALYYCARMYSGSWYPFDYWGQGALVTVSS
VL: EIVLTQSPGTLSLSPGERATLSCRASQNINGNYLAWYQQKPGLAPRLLIYEASSRATGIPDRFSGSGSGTDFTLTISSLEPEDFGVYYCQQYGTSPFFTFGPGTKVDIK
B2: CB010.7 (antibody, V domains shown)
VH: QVQLVESGGGVVQPGRSLRLSCAASGFTFNTHGMHWVRQAPGKGLEWVAVMSYDGTKKYHADSVKGRFTISRDNSKNTLYLQMNSLRVEDTAIYYCAKVGELRSFDWLLADGTAYYYYGMDVWGQGTTVTVSS
VL: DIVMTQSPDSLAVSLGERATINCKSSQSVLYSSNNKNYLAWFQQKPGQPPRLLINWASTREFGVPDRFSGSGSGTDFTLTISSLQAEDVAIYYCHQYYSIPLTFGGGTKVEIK
B3: CB058.1 (antibody, V domains shown)
VH: EVQLVESGGGLVQPGGSLRLSCVASGFTFSSYAMSWVRQAPGKGLEWVSAIRGSVDNTYYADSVKGRFTISRDNSKNTLYLQMNSLRVEDTAVYYCAKDPALYCSGETCFSDLTDWGQGTLVTVSS
VL: DIQMTQSPSSLSASVGDRVTITCRASQGINNYLAWFQQKPGKAPKSLIYAASTLPSGVPSRFSGSGSGTDFTLTISSLQPEDSATYFCQHYIRYPHTFGQGTKLEIK
B4: CB048.3 (antibody, V domains shown)
VH: QVQLVESGGGVVQPGRSLRLSCAASGFTFSNHGMHWVRQAPGKGLEWVAVISYDGNKKYYADSVKGRFTVSRDNSKNTLSLQMDSLRAEDTAIYYCAKTTFYFDDSNYYEYLDYWGQGTLVTVSS
VL: DIQLTQSPSFLSASVGDRVTITCRASQGIRSYLAWYQQKPGKAPKLLIYAASTLQSGVPSRFSGGGSGTEFTLTISSLQPEDSATYYCQQLNTSPPYTFGQGTKLEIK
B5: CB002.1 (antibody, V domains shown)
VH: QVQLQESGPRLVKPSETLSLTCTVSGGSTSSYFWNWIRQPPGKGLEWIGYIYGSGSADYNPSLKSRVTISIDTSKTQFSLKLTSVTAADTAVYYCARSGFCTNDACYRRGSWFDPWGQGTLVTVSS
VL: DIQMTQSPSSLSASVGDRVTITCRASQSIDNYLNWYQQKPGKAPKLLIYAASSLQSGVPSRFSGSGSGTDFTLTVSSLHPEDFATYYCQQSYSTLTWTFGQGTKVEIK
notes: also called CB2.1
B6: CB028.2 (antibody, V domains shown)
VH: QVQLVQSGAEVKKPGASVKVSCKASGYTFTTYGITWVRQAPGQGLEWMGWISGDSDNTNYAQNLQGRVTLTTDISTRTAYMELRSLKPDDTAMYYCARALAKWYCSSSSCFCGGGSCYSDYWGQGTLVTVSS
VL: DIQMTQSPSSLSASVGDRVTITCRASQGMSNYLNWYQQKPGKAPELLIYAASTLQSGVPSRFSGSGSGTDFTLTINSLQPEDFATYFCQQSFSTPLTFGGGTKVEIK

Each binder was assayed against T1, G protein of RSV A/Long (virus, ATCC …) (assay: cell-based or functional assay).
With B1 the “Neutralization IC50 (plaque reduction assay, Vero cells)” value was 0.016 µg/mL.
With B2 the “Neutralization IC50 (plaque reduction assay, Vero cells)” value was 0.012 µg/mL.

These binders were tested against T2, G protein of RSV A/A2 (virus, ATCC Cat. …) (assay: cell-based or functional assay).
B1 was tested, and the “Neutralization IC50 (plaque reduction assay, Vero cells)” value was 0.0315 µg/mL.
For B3, the “Neutralization IC50 (plaque reduction assay, Vero cells)” value was 0.0144 µg/mL.
With B2 the “Neutralization IC50 (plaque reduction assay, Vero cells)” value was 0.0165 µg/mL.
With B4 the “Neutralization IC50 (plaque reduction assay, Vero cells)” value was 0.0167 µg/mL.
For B5, the “Neutralization IC50 (plaque reduction assay, Vero cells)” value was 0.0355 µg/mL.

The binders below were run against T3, G protein of RSV B/18537 (virus, ATCC …) (assay: cell-based or functional assay).
In the case of B1, the “Neutralization IC50 (plaque reduction assay, Vero cells)” value is reported as 0.0246 µg/mL.
B6 was tested, and the “Neutralization IC50 (plaque reduction assay, Vero cells)” value was 0.0196 µg/mL.
B2 was tested, and the “Neutralization IC50 (plaque reduction assay, Vero cells)” value was 0.0141 µg/mL.

The binders below were run against T4, Recombinant RSV attachment protein (G …) (assay: ELISA, coated recombinant protein (Example 6)).
B6: binds.
B3: binds.
B4: binds.
B5: binds.

What follows are binders tested against T5, Recombinant RSV attachment protein (G …) (assay: ELISA, coated recombinant protein (Example 6)).
B6: binds.
B3: binds.
B2: binds.
B4: binds.
B5: binds.
